# Test results reported in article PMC7101349, “Synthetic antibodies against BRIL as universal fiducial marks for single−particle cryoEM structure determination of membrane proteins” (Nature Communications, 2020).
# Residue numbers refer to the chain shown, from its start.
# B1: sAB24 (Fab, V domains shown)
# VH: EVQLVESGGGLVQPGGSLRLSCAASGFNFSSSSIHWVRQAPGKGLEWVAYISSSSGSTSYADSVKGRFTISADTSKNTAYLQMNSLRAEDTAVYYCARWGYWPGEPWWKAFDYWGQGTLVTVSS
# VL: DIQMTQSPSSLSASVGDRVTITCRASQSVSSAVAWYQQKPGKAPKLLIYSASSLYSGVPSRFSGSRSGTDFTLTISSLQPEDFATYYCQQYLYYSLVTFGQGTKVEIK
# notes: as the heavy chain of m3 (BAG2), with CDR-H1 32-37 FSSSSI in place of VVDFSL; as the light chain of m3 (BAG2); Parent of BAG2; also called wt sAB24; wt sAB; source: E. coli BL21(gold), purified
# B2: sAB BAG2 (Fab, V domains shown)
# VH: B1 VH with F29V, S30V, S31D, S32F, I34L
# VL: B1 VL
# notes: Fab heavy chain; CDR-H1 residues 32-37 are VVDFSL; Fab light chain; humanized Fab scaffold of phage library E; source: E. coli BL21(gold), purified
# B3: BAG2 S36A (Fab, V domains shown)
# VH: B1 VH with F29V, S30V, S31D, S32F, S33A, I34L
# VL: B1 VL
# notes: as the heavy chain of m3 (BAG2) with the stated change in CDR-H1; as the light chain of m3 (BAG2)
# B4: BAG2 F35A (Fab, V domains shown)
# VH: B1 VH with F29V, S30V, S31D, S32A, I34L
# VL: B1 VL
# notes: as for B3
# Legend:
# Conditions in all cases: both partners purified
# His10-BRIL = biological target: T1, His10-BRIL (Escherichia coli (engineered cytochrome …, stabilised)); assay: SPR; His10-BRIL immobilised on a nitrilotriacetic acid sensor chip via the N-terminal His10 tag; 2-fold dilution series of sABs at 30 μl/min; 20 °C; BIACORE 3000; 1:1 interaction model
# T1 construct: BRIL, an engineered variant of apocytochrome b562; Immobilised by its N-terminal His10 tag for SPR; also called wt BRIL; source: E. coli BL21 (DE3), purified (Ni-NTA); not shown: His10, N-terminal, kept
# [1] = biological target: T2, BRIL-AAA-KcsA (construct 2) (Escherichia coli (engineered cytochrome …, chimera)); assay: SEC; analytical SEC (aSEC): BRIL-fused targets (in detergent, nanodiscs or amphipols) mixed with 1.2–1.5-fold molar excess of sAB, 30 min on ice; Superdex 200 Increase or Superose 6 Increase; retention volume and gel electrophoresis
# T2 construct: BRIL, an engineered variant of apocytochrome b562, in place of the N-terminal helix of KcsA; helical linker; potassium channel KcsA; the N-terminal helix (residues 1-23) replaced by BRIL and linker; also called three residues (-AAA-) linker construct; source: E. coli BL21(DE3)plysS, purified (Talon, SEC) in DDM
# [2] = biological target: T3, BRIL-AARAAAA-KcsA (construct 6) (Escherichia coli (engineered cytochrome …, chimera)); assay: as above
# T3 construct: BRIL, an engineered variant of apocytochrome b562, in place of the N-terminal helix of KcsA; helical linker; potassium channel KcsA; the N-terminal helix (residues 1-23) replaced by BRIL and linker; also called seven residues (-AARAAAA-) linker construct; source: E. coli BL21(DE3)plysS, purified (Talon, SEC) in DDM
# [3] = biological target: T4, BRIL-AARAAA-KcsA (construct 5) (Escherichia coli (engineered cytochrome …, chimera)); assay: as above
# T4 construct: BRIL, an engineered variant of apocytochrome b562, in place of the N-terminal helix of KcsA; helical linker; potassium channel KcsA; the N-terminal helix (residues 1-23) replaced by BRIL and linker; also called six residues (-AARAAA-) linker construct; source: E. coli BL21(DE3)plysS, purified (Talon, SEC) in DDM
# [4] = biological target: T5, BRIL-3turn-KcsA (construct 8) (Escherichia coli (engineered cytochrome …, chimera)); assay: as above
# T5 construct: BRIL, an engineered variant of apocytochrome b562, in place of the N-terminal helix of KcsA; helical linker, 3 turn; potassium channel KcsA; the N-terminal helix (residues 1-23) replaced by BRIL and linker; source: E. coli BL21(DE3)plysS, purified (Talon, SEC) in DDM
# [5] = biological target: T6, BRIL-2turn-KcsA (construct 7) (Escherichia coli (engineered cytochrome …, chimera)); assay: as above
# T6 construct: BRIL, an engineered variant of apocytochrome b562, in place of the N-terminal helix of KcsA; helical linker, 2 turn; potassium channel KcsA; the N-terminal helix (residues 1-23) replaced by BRIL and linker; also called construct with 2-turn linker; source: E. coli BL21(DE3)plysS, purified (Talon, SEC) in DDM
# [6] = biological target: T7, BRIL-AAAAA-KcsA (construct 4) (Escherichia coli (engineered cytochrome …, chimera)); assay: as above
# T7 construct: BRIL, an engineered variant of apocytochrome b562, in place of the N-terminal helix of KcsA; helical linker; potassium channel KcsA; the N-terminal helix (residues 1-23) replaced by BRIL and linker; also called five residues (-AAAAA-) linker construct; source: E. coli BL21(DE3)plysS, purified (Talon, SEC) in DDM
# [7] = biological target: T8, BRIL-AAAA-KcsA (construct 3, 1 turn) (Escherichia coli (engineered cytochrome …, chimera)); assay: as above
# T8 construct: BRIL, an engineered variant of apocytochrome b562, in place of the N-terminal helix of KcsA; helical linker, 1 turn; potassium channel KcsA; the N-terminal helix (residues 1-23) replaced by BRIL and linker; also called four residues or 1 turn (-AAAA-) linker construct; source: E. coli BL21(DE3)plysS, purified (Talon, SEC) in DDM
binder,measurement,setting,value
B1,Kd,His10-BRIL,~23 nM
B2,stoichiometry N,[1],4
same,stoichiometry N,[2],4
same,stoichiometry N,[3],4
same,stoichiometry N,[4],4
same,stoichiometry N,[5],4
same,stoichiometry N,[6],4
same,stoichiometry N,[7],4
same,Kd,His10-BRIL,~0.3 nM
B3,Kd,His10-BRIL,5.3 nM
B4,Kd,His10-BRIL,7.6 nM
